From the nanobody polyreactivity screen of Harvey et al. (2022)

Test: yeast display, Sf9 membrane polyspecificity reagent, FACS + sequencing; frameworks hold sequencing errors
Procedure, shortened: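 Nanobodies from a synthetic yeast display library (Saccharomyces cerevisiae BJ5465), induced 36–48 hours with galactose, were stained 1 hour at 4 °C with 10% biotinylated, detergent-solubilized Sf9 membrane reagent, enriched on streptavidin microbeads, then FACS-sorted. Anti-HA (expression) and streptavidin (reagent binding) fluorescence set low and high (top ~1%) gates. Polyreactivity labels come from the gate of origin. Genes were colony-PCR amplified, MiSeq 2 × 250 sequenced and filtered by CDR length.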

Sequence | polyreactivity (PSR sort gate)
QVQLVESGGGLVQEGGRLRISCAATGINFSWYAMGWNRPATGKERELVASITIGGNTNFADSVKGRFTISLYNAKNSVYLQMNSLKREDTAVYYCAAQTFWYGYGGGVYWGQGTQVTVSS | low polyreactivity
QVQLVESGGGLVQEGGRLRLSCAASGRIISINAMGWYRQAPGKERELVAAITRGGTTYADSVKGRFTISRDIAKNTVYLHMNRLKPEDPAVYYCNARTGRSPSGFRYWGQGTQVTVSS | high polyreactivity
QVQLVESGGGLVQEGGSIRLSCAASGRIFYFNTMGWSRQAPGKERELVAAISKNGGSTYYADSVKGRFTISRDNEKNSVYLQMNSLKPEDTAFYLCAKTRRLSPYDYWGLGTQVTVSS | high polyreactivity
QVQLVESGGGLVQEGGSLGLSCAASGRIFIPYAMGWYRQETGKEREFVATIRWRGGRTYYADSVKGRFTISRDNAKNTVYLQLYSLKPEDTAVYYCAARSNALFRFDYWGQGTQVSVSS | high polyreactivity
QVQLVESGGGLVQEGGSLRIICAASGFIFYYYAMGWYRQAPGKERELVAGISRRGGSTYYADSVKGRFTISRDNAKNTVYLQMNSLKPEDTAVYYCAALGDDATSYGYWGQGTQVTVSS | high polyreactivity
QVQLVESGGGLVQEGGSLRLICAASGLIFRTYTMGWYRQAPGKERELVATITRRGGTTYYADSVKGRFTISRDNAKNTVYLQMNSLKPEDTAVYYCAKSPYYTWKYDYWGQGTQVTVSS | high polyreactivity
QVQLVESGGGLVQEGGSLRLICAASGRIFFYYAMGWYRQAPGKERELVAAISQSGGSTYYADSVKGRFTISRDNAKNTVYLQMNSLKPEDPAVYYCNAAEPYYDTSAVAGDYWGQGTQVTVSS | low polyreactivity
QVQLVESGGGLVQEGGSLRLICAASGRTFRHNVMGWYRQAPGKQRELVAAISYSGGSTHYADSVKGRFTISRDNAKYTVYLQMNSLKPVDTAVYYCNRYSYDSHFLYPFRGHDYWGQGTQVTVSS | low polyreactivity
QVQLVESGGGLVQEGGSLRLICAASGSTFIYNAMGWYRQAPGKERELVASISTSGGSTYYADSVKGRFTISRDNAKNTVYFQMNSLIPEDTAVYYCAKRYFFKYGYWGQGTQVTVSS | high polyreactivity
QVQLVESGGGLVQEGGSLRLNCAASGSTFWGNAMGWYRQPPGKDRELVAAISTSDTSTYYADSVKGRFTISRDNAKNTVYLQMNSLKPEDTAVYFCAAEWYYGEKYDYWGQGTQVTVSS | low polyreactivity
QVQLVESGGGLVQEGGSLRLRCAASGGIFASNAMRWYRQAPGKERELLATITRGGSTNYADSVKGRFTISRDNAKNTVYLQMNSLKPEDTAVYYCAARFYSRAFWPAYYYWGQGTQVTVSS | high polyreactivity
QVQLVESGGGLVQEGGSLRLSCAASGFIFLYYAMGWYRQAPGKERELVASINRVGSTYYADSVKGRFTISRDNAKKTVYLQMNSLKPEVTAVYYCNARWIGRLTPYRRATYNYWGQVTQVTVSS | high polyreactivity
QVQLVESGGGLVQEGGSLRLSCAASGFIFTPNTMGWYRQAPGKERELVAAITTNGGRTYYADSVKGRFTISRDNAKNTVYLQMNSLKSEDTAVYYCAARYVSSFGLHAQVWSYYYCGQGTQVTVSS | high polyreactivity
QVQLVESGGGLVQEGGSLRLSCAASGFIFVTNAMGWYRQAPGKERELVAAITIGDSTYYADSVKGRFTISRDNAKNTVYLQMNSLKPEDTAVYYCAAEVGFGPGFSTIAYTFDYWGQGTQVTVSS | low polyreactivity
QVQLVESGGGLVQEGGSLRLSCAASGFTFPDYAMGWNRQAPGKERDLVAAITSSGGSTYYADSVKGRFTISRDNAKNTVYLQMNSLKPEDTAVYYCNGYISDDRYWSPAIEEDYWGQGTQVTVSS | high polyreactivity
QVQLVESGGGLVQEGGSLRLSCAASGFTFPYYAMGWYRQAPGKERELVAAISNGGSNTYYADSVKGRFTISRDNAKNTVYVQMNSLKPEDTAVYYCAARVGGSYDYWGQGTQVTVSS | high polyreactivity
QVQLVESGGGLVQEGGSLRLSCAASGFTFPYYAMGWYRQAPGKERELVAAITSSGTITYYADSVKGRFTISRDNAKNTVYLQMNSLKPEDTAVYYCAARFSSTRYLQWYYYWGQGTQVTVSS | high polyreactivity
QVQLVESGGGLVQEGGSLRLSCAASGLIFNRYAMGWYRQAPGKERELVAAITSRGGRTYYADSVKGRFTISRDNAKNTVYLQMNSLKPEDTAVYYCNRTPTGSYLYGMDYWGQGTQVTVSS | high polyreactivity
QVQLVESGGGLVQEGGSLRLSCAASGRIFDENAMGWYRQAPGKERELVAAISSGDSTKYADSVKGRFTISRDNAKNTVYLQMNSLKPEDTAVYYCAAARNHGLVGSESVGRNDYWGQGTQVTVSS | low polyreactivity
QVQLVESGGGLVQEGGSLRLSCAASGRIFENNAMGWYRQAPGKERELVAAITSGGSTYYADSVKGRFTISRDNAKNTVYLQMNSLKPEDTAVYYCNVTFRVDPWTRTGYDYWGQGTQVTVST | high polyreactivity
QVQLVESGGGLVQEGGSLRLSCAASGRIFNGYAMGCYRQAPGKERELVAAINSSGGSTYYADSVKGRFTISRDNAKNTVYLQMNSLKPEDTAVYYCARVSYHYRTYDYWGQGTQVTVSS | high polyreactivity
QVQLVESGGGLVQEGGSLRLSCAASGRIFNTNAMGWSRQAPGKERELVAGITDSGDSTYDADSVKGRFTISRDNAKNTVYLQMYSLKPEDTGVYYCATDPASPYIYDYWGQGTQVTVSS | low polyreactivity

Sequence | polyreactivity (PSR sort gate)
QVQLVESGGGLVQEGGSLRLSCAASGRIFPYYAMGWYRQAPGKERELVATITSGGSTYYADSVKGRFTISRDNAKNTVYLQMNSLKPEDTAVYYCAARYPSIYYYRYDYWGQGTQVTVSS | high polyreactivity
QVQLVESGGGLVQEGGSLRLSCAASGRTFADYTMGWYRQAPGKERELVAAISFSGGSTYYEDSVKGRFTISRDNAKNTVYLQMNSLKPEDTAFYYCAAGHKRRAPRYYYWGQGTQVTVSS | high polyreactivity
QVQLVESGGGLVQEGGSLRLSCAASGRTFKKYAMGWYRQAPGKERELVAAITGSGGSTYYADSVKGRFTISRDNAKNTVYLQMNSLKPEDSAVYYCAAYAYGVWHSQDGGNYWGQGTQVTVSS | low polyreactivity
QVQLVESGGGLVQEGGSLRLSCAASGRTFSRYVMGWYRQAPGKERELVAAIRGSGGGTYYADSVKGRFTISRDNAKNTVYLQMNSLKPEDTAVYYCNVVRSTVLYDYWGQGTQVTVSS | high polyreactivity
QVQLVESGGGLVQEGGSLRLSCAASGSIFGGYVMGWYRQAPGKERELVAAITSGGSTYYADSVKGRFTISRDNAKNTVYLQMNSLKPEDTAVYYCAKDYGDWGQGTQVTVSS | low polyreactivity
QVQLVESGGGLVQEGGSLRLSCAASGSIFQYYALGWYRPAPGKERELVAAISSGGRTNYADSVKGRFTISRDNAKNSVYLQMNSLKPEDTAVYYCAAARYYYQVYRWEYDYWGQGTQVTVSS | high polyreactivity
QVQLVESGGGLVQEGGSLRLSCAASGSIFRFYVMGWYRQAPGKERELVAAISIGGSTNYADSVKGRFTISRDNAKNTVYLQMNSRKPEDTAVYYCAADDWYGAGLPHGTEFDYWGQGTQVTVSS | low polyreactivity
QVQLVESGGGLVQEGGSLRLSCAASGSIFRVNTMGWYRQAPGKERELVATISSGARTNYADSVKGRFTISRDNAKNTVYLQMNSLKPEDTAVYYCAADRSWGYPRWFTSRYDYWGQGTQVTVSS | high polyreactivity
QVQLVESGGGLVQEGGSLRLSCAASGSNLKGYAMGWYRQAPGKERELVARITRGGSTNYADSVKGRFTISRDNAKNTVYLQRNSLKPEDTAVYYCNKSGRWSARSASREVGDDYWGQGTQVTVSS | low polyreactivity
QVQLVESGGGLVQEGGSLRLSCAASGSTFAYNAKGWYRQAPGKERELVARISSSGDITYDADSVKGRFTISRDNAKNTVYLQMNSLKPEDTAVYYCAKRYLTRYKGYYYWGQGTQVTVSS | high polyreactivity
QVQLVESGGGLVQEGGSLRLSCAASGSTFDIYAMGWYRQAPGKERELVAAIRGRGGSTYYADSVKGRFTISRDNGKNTVYLQMNSLKPEDTAVYYCAADSYATRYYYWGQGTQVTVSS | high polyreactivity
QVQLVESGGGLVQEGGSLRLSCAASGSTFEYNAMGWYRQAPGKERELVADISWRGGGTYYADSVKGRFTISRDNAKNTVYLQMNSLKPEDTAVYYCNTVSRNGFYRTRHDYWGQGTQVTVSS | low polyreactivity
QVQLVESGGGLVQEGGSLRLSCAASGSTFHDNAMGWYRQAPGKERELVASITGSSGSTYYADSVKGRFTISRDNAKNTVYLQMNSLKPEDTAVYYCADEGSRWYYFFYGGGGYWGQGTQVTVSS | low polyreactivity
QVQLVESGGGLVQEGGSLRLSCAASGSTFHGYAMGWYRQAPGKERELVASISWSGGRTYYADSVKGRFTISRDNAKNTVYLQMNSMKPEDTAVYYCAAETGGLGGDYLGQGTQVTVSS | low polyreactivity
QVQLVESGGGLVQEGGSLRLSCAASGSTFWANAMGWYRQAPGKERELVAGITWNAGSTYYADSVKGRFTISRVDANNSVYLHMNSLKPEDTAVYYCAAFYHFQGWGPGYISWGQGTQVSVSS | low polyreactivity
QVQLVESGGGLVQEGGSLRLSCAASGTFYRYAMGWYRQAPGKERELVAAISRSGGSTYYADSVKGRFTISRDNAKNTVYLQMNSLKPEDTAVYYCAAYSRSFYLASLYDYWGQGTQVTVSS | high polyreactivity
QVQLVESGGGLVQEGGSLRLSCAASGYIFYYYAMGRYIQAPGKERELVAAISTSDTRTFYADSVKGRFTISRDNAKNTVYLQMNSRKPEDTAVYFCAASLYKGGPNYGYEYWGQGTQVTVSS | low polyreactivity
QVQLVESGGGLVQEGGSLRLSCAAYGRIFAPYSMGWYRQAPGKERELVAAITSGGSTNYADSVKGRFTISRDNAKNTVYLQMNSLKPEDTSVYYCASEASYNYVKYVVTYVYWGQGTQVTVSS | high polyreactivity
QVQLVESGGGLVQEGGSLRLSCASSGRIFDYYAMGWYRQAPGKESELVAAISSSVGNTYYADSVKGRFTISRDNAKNTVYFQMNRLKQEDTAVYYFADYSYVRSSYEVEYDYWGQGTQVTVSS | low polyreactivity
QVQLVESGGGLVQEGGSLRLSWAASGITFGGYAMGWYRQAPGKERELVAAISRGGGSTNYADSVKGRFTISLDNANNTVYLQMNSLKPEDTAVYYCNARRQNSRYDYWGQGTQVTVST | low polyreactivity
QVQLVESGGGLVQEGGSLSLSCAASGYIFYIYAMGWYRQAPGKERELVATISWSGGDTYYADSVKGRFTISRDNANNTVYLQMNSLNPEDTAVYYCATEVGQSWAGDGDYEYWGQGTQVTVSS | low polyreactivity
